The values that follow come from paper PMC12463876, “AI-assisted design of ligands for lipocalin-2” (Frontiers in Immunology, 2025).

In general, Kd refers to the equilibrium constant for the complex coming apart.

The assay has as its target T1, Recombinant human lipocalin-2 (LCN2) (human, UniProt P80188 21-198).
T1 construct: Lipocalin-2 (LCN2), human, recombinant; neither is said to be the construct used; also called neutrophil gelatinase-associated lipocalin; siderocalin; source: produced and purified by GenScript
Nature of the assay: SPR; MinP-2 immobilised by amine coupling on a CM5 chip (Biacore 8K); LCN2 injected at 7.8, 15.6, 31.2, 62.5 and 125 nM, 30 uL/min, contact 120 s, dissociation 600 s; 25 °C; 1:1 model. The conditions noted are these: both partners purified. A general note: SPR reads the build-up and loss of mass on a sensor chip optically.

T1 sequence (P80188 21-198): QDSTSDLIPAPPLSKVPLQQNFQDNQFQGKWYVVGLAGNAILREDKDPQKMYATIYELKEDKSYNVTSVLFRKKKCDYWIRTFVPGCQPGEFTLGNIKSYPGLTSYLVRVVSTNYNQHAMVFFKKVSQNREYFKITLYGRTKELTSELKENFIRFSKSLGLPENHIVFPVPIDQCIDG

B1: MinP-2 (designed binder)
chain: MSKATVYDVSTGKTYEVSLEDAKKLASYAVYEGGYPLRISVAPEDTKAILDAIKNTSKEKAEEGKKLLEELN
notes: de novo miniprotein (RFdiffusion, ProteinMPNN) designed against LCN2; Cloned into pET30b with a Twin-Strep tag; also called MiniP-2; source: E. coli BL21 (DE3) pLysS, purified (Strep-Tactin XT magnetic beads, dialysis)
In the case of B1, the Kd is 4.2 nM.
